The values that follow come from PMC8406188 (mBio, 2021).

For orientation: stoichiometry N means a count of units in the complex or per binding partner.

Data set [1] deals with OmpC(K281am) with benzoyl phenylalanine (Bpa) at residue 281 (E. coli) (UniProt P06996). In words: SDS-PAGE of unheated and heated samples (heat-sensitive oligomers); OmpC amber mutants synthesized in PURExpress lacking release factor 1 with FluoroTect, tRNATAG-BPA, SurA, Rc LPS and Bam POPC proteoliposomes; 30 min, 30°C; with or without UV.
In data set [2] the target is OmpC(K255am) with benzoyl phenylalanine (Bpa) at residue 255 (E. coli) (UniProt P06996). The data set is described as above.
Data set [3] concerns the molecule itself. Put plainly: SDS-PAGE of unheated and heated samples (heat-sensitive oligomers), with proteinase K; OmpC synthesized in PURExpress with FluoroTect, SurA, smooth LPS from E. coli O55:B5 (0.5 mg/ml) and Bam DLPC proteoliposomes; 30 min, 37°C.
Data set [4] deals with the molecule itself. Put plainly: SDS-PAGE of unheated samples (oligomers), colloidal blue staining; urea-denatured OmpC folded into 1% DDM-0.4% DDG, 50 mM Tris pH 8.0, 1 mM DTT, 0.1 mM EDTA; 37°C, 24 h.
Data set [5] concerns the molecule itself. In words: SDS-PAGE of unheated and heated samples (heat-sensitive oligomers), with proteinase K; 0.2 μM urea-denatured OmpC S71C-BODIPY-FL added to SurA, Bam proteoliposomes (text: Bam DLPC; legend: Bam DMPC) and Rc LPS in a complete mixture of PURExpress components; 30 min, 37°C.

Changes are numbered by the printed parent chain. Numbers in names are those of the source. Where “and” joins values, the source holds several entries; their conditions need not be identical. Equal entries are not always repeated.

As to “OmpC(K281am) with benzoyl phenylalanine (Bpa) at residue 281 (from UniProt P06996 22-367) (natural protein)”, the stoichiometry N in data set [1] was determined as 3.

In data set [2], “OmpC(K255am) with benzoyl phenylalanine (Bpa) at residue 255 (from UniProt P06996 22-367) (natural protein)” came in with a stoichiometry N of 3.

B1: E. coli OmpC (wild type), synthesized in vitro without its signal peptide (natural protein, UniProt P06996 22-367, looked up)
chain: AEVYNKDGNKLDLYGKVDGLHYFSDNKDVDGDQTYMRLGFKGETQVTDQLTGYGQWEYQIQGNSAENENNSWTRVAFAGLKFQDVGSFDYGRNYGVVYDVTSWTDVLPEFGGDTYGSDNFMQQRGNGFATYRNTDFFGLVDGLNFAVQYQGKNGNPSGEGFTSGVTNNGRDALRQNGDGVGGSITYDYEGFGIGGAISSSKRTDAQNTAAYIGNGDRAETYTGGLKYDANNIYLAAQYTQTYNATRVGSLGWANKAQNFEAVAQYQFDFGLRPSLAYLQSKGKNLGRGYDDEDILKYVDVGATYYFNKNMSTYVDYKINLLDDNQFTRDAGINTDNIVALGLVYQF
modifications: fluorescent lysine residues (BODIPY-FL at the ε position, from FluoroTect GreenLys) incorporated during synthesis
On to B1, for which, in data set [3], the “stoichiometry N” value was 2 and 3.

B2: Urea-denatured wild-type OmpC purified from inclusion bodies (natural protein, E. coli, UniProt P06996 22-367, looked up)
chain: B1 chain
With B2, the “stoichiometry N” value in data set [4] came out at 3.

B3: Urea-denatured OmpC S71C, fluorescently labeled at residue 71 with BODIPY-FL (natural protein, E. coli, UniProt P06996 22-367, looked up)
chain: B1 chain with S71C
modifications: BODIPY-FL maleimide on the cysteine at 71
As for B3, the “stoichiometry N” value in data set [5] is 2 and 3.
